What was measured:
[1] = biological target: T1, soluble type I IL-1RI/Fc fusion protein (extracellular domain of human type I IL-1R fused to the Fc region … (human, UniProt P14778 18-336)); test: BIAcore; Fc fusion captured by anti-human IgG Fc serum
T1 construct: extracellular domain; Positive control in the BIAcore assay; also called human type I IL-1R/Fc fusion protein; not shown: Fc region polypeptide (human IgG1, as for 2F1/Fc)
T1 sequence (looked up): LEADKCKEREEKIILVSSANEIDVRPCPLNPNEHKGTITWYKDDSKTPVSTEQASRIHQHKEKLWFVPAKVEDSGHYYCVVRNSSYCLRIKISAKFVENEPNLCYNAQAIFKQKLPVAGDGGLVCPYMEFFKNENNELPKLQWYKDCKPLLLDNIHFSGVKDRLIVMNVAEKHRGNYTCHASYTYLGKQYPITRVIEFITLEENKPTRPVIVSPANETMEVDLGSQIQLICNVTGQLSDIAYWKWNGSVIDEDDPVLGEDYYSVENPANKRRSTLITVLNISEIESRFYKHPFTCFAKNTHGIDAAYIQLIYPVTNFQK
Description: (§1) A BIAcore biosensor (Pharmacia Biosensor AB, Piscataway, N.J.) was used to examine binding of IL-1 ligands to the human 2F1/Fc fusion protein, using procedures essentially as described in Arend et al. (*J. Immunol.* 153: 4766–4774, 1994). Briefly, a goat anti-human IgG serum directed against the Fc region (Jackson Immunoresearch Laboratories, Inc., West Grove, Pa.), covalently coupled to the dextran matrix of a hydrogel chip, was used to capture the human 2F1/Fc protein. The 2F1/Fc fusion protein thus was immobilized on the BIAcore chip. The three IL-1 ligands, at several different concentrations, were reacted with the captured protein, and the change of mass per unit area over time was measured.

[2] = biological target: chimeric receptor: extracellular and transmembrane portions of the mouse type I IL-1 receptor fused to the cytoplasmic portion of human 2F1 (mouse; human) (UniProt P13504); test: cell-based or functional assay; details: scale: fold of the level mediated by the intact mouse type I IL-1R
[3] = biological target: T2, 2F1/Fc soluble fusion protein (human 2F1 extracellular domain joined to the Fc region of a human IgG1) (human, UniProt Q13478 20-329); test: BIAcore; 2F1/Fc captured by anti-human IgG Fc serum, ligand at several different concentrations
T2 construct: Captured on the BIAcore chip by goat anti-human IgG Fc serum; also called human 2F1/Fc fusion protein; 2F1/Fc protein; not shown: Fc region of a human IgG1; made by procedures analogous to Baum et al. 1994
T2 sequence: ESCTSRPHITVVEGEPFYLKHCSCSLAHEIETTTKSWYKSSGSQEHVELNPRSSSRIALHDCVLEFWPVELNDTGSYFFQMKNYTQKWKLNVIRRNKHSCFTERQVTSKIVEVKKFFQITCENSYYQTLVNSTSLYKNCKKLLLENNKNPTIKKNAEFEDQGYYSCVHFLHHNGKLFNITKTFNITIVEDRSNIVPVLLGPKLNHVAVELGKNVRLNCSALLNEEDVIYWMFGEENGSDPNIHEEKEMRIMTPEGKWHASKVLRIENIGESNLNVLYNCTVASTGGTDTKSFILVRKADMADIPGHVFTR
Description: as §1

Sequence of chimeric receptor: extracellular and transmembrane portions of the mouse type I IL-1 receptor fused to the cytoplasmic portion of human 2F1 (mouse; human) (P13504 other isoform, or with tags, fused parts or gaps mutant, form in doubt): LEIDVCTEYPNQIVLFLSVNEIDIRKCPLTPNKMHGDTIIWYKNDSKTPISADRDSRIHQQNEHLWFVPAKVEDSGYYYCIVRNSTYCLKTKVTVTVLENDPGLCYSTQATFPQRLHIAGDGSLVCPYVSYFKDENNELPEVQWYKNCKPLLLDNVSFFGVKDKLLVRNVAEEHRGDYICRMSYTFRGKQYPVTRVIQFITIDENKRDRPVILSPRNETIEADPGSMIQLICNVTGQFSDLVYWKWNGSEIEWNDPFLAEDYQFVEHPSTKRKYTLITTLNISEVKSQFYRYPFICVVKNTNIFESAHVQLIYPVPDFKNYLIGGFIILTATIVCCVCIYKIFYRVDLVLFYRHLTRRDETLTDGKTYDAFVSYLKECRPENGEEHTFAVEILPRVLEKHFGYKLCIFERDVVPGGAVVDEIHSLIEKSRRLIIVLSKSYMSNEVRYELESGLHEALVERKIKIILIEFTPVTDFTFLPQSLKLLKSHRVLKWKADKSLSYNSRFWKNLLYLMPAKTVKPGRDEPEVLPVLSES

B1: human IL-1α (ligand, UniProt P01583 113-271, looked up)
chain: SAPFSFLSNVKYNFMRIIKYEFILNDALNQSIIRANDQYLTAAALHNLDEAVKFDMGAYKSSKDDAKITVILRISKTQLYVTAQDEDQPVLLKEMPEIPKTITGSETNLLFFWETHGTKNYFTSVAHPNLFIATKQDYWVCLAGGPPSITDFQILENQA
- binding result [1]: binds
- induction of IL-8 promoter function (IL-2Rα reporter, COS7 cells) [2]: 0.5
- binding result [3]: no binding

Source: US7235238 (IMMUNEX, dated 2007)
